Values belong to the binder of their own block, whether it stands above or below them.
Assays:
[1] = biological target: T1, Kar1 peptide (budding yeast)
T1 peptide: KKRELIESKWHRLLFHDKK

[2] = biological target: T2, Bbp1-TAP (budding yeast, UniProt Q12365 1-385); test: pull-down
T2 sequence (looked up): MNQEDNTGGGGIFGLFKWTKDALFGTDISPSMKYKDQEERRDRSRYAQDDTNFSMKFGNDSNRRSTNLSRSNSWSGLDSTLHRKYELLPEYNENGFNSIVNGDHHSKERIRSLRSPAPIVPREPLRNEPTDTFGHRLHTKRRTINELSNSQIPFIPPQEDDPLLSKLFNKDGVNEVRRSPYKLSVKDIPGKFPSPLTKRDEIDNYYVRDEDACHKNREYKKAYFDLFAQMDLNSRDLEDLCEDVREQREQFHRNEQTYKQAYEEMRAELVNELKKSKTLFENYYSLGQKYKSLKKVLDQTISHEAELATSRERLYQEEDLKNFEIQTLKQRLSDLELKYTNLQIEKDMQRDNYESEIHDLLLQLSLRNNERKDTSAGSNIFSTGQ

fold lower ability to bind than wild-type Cdc31 [1]: ~10 fold
B1: Cdc31-T110D (natural protein, budding yeast, UniProt P06704 1-161, looked up)
chain: MSKNRSSLQSGPLNSELLEEQKQEIYEAFSLFDMNNDGFLDYHELKVAMKALGFELPKREILDLIDEYDSEGRHLMKYDDFYIVMGEKILKRDPLDEIKRAFQLFDDDHDGKISIKNLRRVAKELGETLTDEELRAMIEEFDLDGDGEINENEFIAICTDS

fold binding against GST-Spc29 treated with kinase-dead mps1KD [2]: 5 fold
B2: GST-Spc29 phosphorylated by 6His-Mps1 (natural protein, budding yeast, UniProt P33419 1-253, looked up)
chain: MDYSNFGNSASKKFQDDTLNRVRKEHEEALKKLREENFSSNTSELGNKKHYRAQERMSSPLHRLSPTGKSDDRKVKSPLDDKLRRQLREGNTRLPPPPFSSYGMPPTNRSNLDRIRRRTSSPVRTDKFASQNVIDDQRLEIKYLERIVYDQGTVIDNLTSRITRLESFILNSISDRGDKNFASLEHSRSFSGFPTNKTYGLQMGGLYENDMPYRRSSDNINKEGAREDRSSQIHIENESTEDILKILSSSFHN
modifications: phosphorylated in vitro by Mps1; sites identified by LC-MS/MS: T18, T159, S187 and T240

binding result [2]: binds
B3: GST-Spc29, nonphosphorylated (natural protein, budding yeast, UniProt P33419 1-253, looked up)
chain: MDYSNFGNSASKKFQDDTLNRVRKEHEEALKKLREENFSSNTSELGNKKHYRAQERMSSPLHRLSPTGKSDDRKVKSPLDDKLRRQLREGNTRLPPPPFSSYGMPPTNRSNLDRIRRRTSSPVRTDKFASQNVIDDQRLEIKYLERIVYDQGTVIDNLTSRITRLESFILNSISDRGDKNFASLEHSRSFSGFPTNKTYGLQMGGLYENDMPYRRSSDNINKEGAREDRSSQIHIENESTEDILKILSSSFHN

Reference: PMC2854372 (The Journal of Cell Biology, 2010)
